Data as given in publication PMC10360156.
Residue numbers refer to the chain shown, from its start. Numbers in names are those of the source. Blank lines part the entries; values can stand above or below the binder they belong to.

Columns and labels:
[1] = molecular target: four maltose binding proteins arranged in tandem (4MBP)
[2] = molecular target: four maltose binding proteins arranged in tandem (4MBP); remark: listed apart in the source
[3] = molecular target: four maltose binding proteins arranged in tandem (4MBP); remark: listed apart in the source

no. of weak aggregates of 4MBP per trace with 5 μM HSPB8 (No HSPB8: 1.16) (aggregates per trace) [1]: 0.64 | percentage of residues of 4MBP forming weak aggregates after unfolding and 5 s relaxation at 0 pN, with 5 μM HSPB8 (40% in the absence of chaperone) [2]: 19% | percentage of residues of 4MBP in tight aggregates (not unfolded at 63 pN) after unfolding and relaxation, with 5 μM HSPB8 [2]: < 2%
B1: human small heat shock protein HSPB8 (wild type) (natural protein)
chain: MADGQMPFSCHYPSRLRRDPFRDSPLSSRLLDDGFGMDPFPDDLTASWPDWALPRLSSAWPGTLRSGMVPRGPTATARFGVPAEGRTPPPFPGEPWKVCVNVHSFKPEELMVKTKDGYVEVSGKHEEKQQEGGIVSKNFTKKIQLPAEVDPVTVFASLSPEGLLIIEAPQVPPYSTFGESSFNNELPQDSQEVTCT

no. of weak aggregates of 4MBP per trace with 5 μM HSPB8-K141E (No HSPB8: 1.16) (aggregates per trace) [1]: 0.85 | percentage of residues of 4MBP forming weak aggregates after unfolding and relaxation, with 5 μM HSPB8-K141E (19% for wild-type HSPB8; 40% in the absence of chaperone) [3]: 31%
B2: HSPB8-K141E, pathogenic mutant of human HSPB8 (natural protein)
chain: B1 chain with K141E
